This assay deals with CA-FN domains of human RPTPζ (amino acid residues 34-410) fused to human IgG1 Fc, purified (human, UniProt P23471 34-410). In words: AlphaScreen competition with biotinylated TNC(Fg).

By IC50 is commonly meant the point on the concentration scale where inhibition reaches its midpoint. Lower therefore signals higher potency.

B1: Fg domain of human tenascin-C (amino acid residues 1975-2201) (domain or fragment)
chain: GLLYPFPKDCSQAMLNGDTTSGLYTIYLNGDKAEALEVFCDMTSDGGGWIVFLRRKNGRENFYQNWKAYAAGFGDRREEFWLGLDNLNKITAQGQYELRVDLRDHGETAFAVYDKFSVGDAKTRYKLKVEGYSGTAGDSMAYHNGRSFSTFDKDTDSAITNCALSYKGAFWYRNCHRVNLMGRYGDNNHSQGVNWFHWKGHEHSIQFAEMKLRPSNFRNLEGRRKRA
The molecule B1 had an IC50 of 43 nM.

B2: Fg domain of human tenascin-R (amino acid residues 1129-1358) (domain or fragment)
chain: GRVFPHPQDCAQHLMNGDTLSGVYPIFLNGELSQKLQVYCDMTTDGGGWIVFQRRQNGQTDFFRKWADYRVGFGNVEDEFWLGLDNIHRITSQGRYELRVDMRDGQEAAFASYDRFSVEDSRNLYKLRIGSYNGTAGDSLSYHQGRPFSTEDRDNDVAVTNCAMSYKGAWWYKNCHRTNLNGKYGESRHSQGINWYHWKGHEFSIPFVEMKMRPYNHRLMAGRKRQSLQF
For the molecule B2, the IC50 came to 47 nM.

These data come from PMC10371798 (2023).
